Laboratory results published in US20200140522A1 (US Dept. of Health and Human Services, published 2020).
Substitutions are numbered along the chain they refer to.

Columns and labels:
[1] = target: T1, bovine LPL (lipoprotein lipase) (bovine, UniProt P11151 29-478); experiment: cell-based or functional assay
T1 sequence (looked up): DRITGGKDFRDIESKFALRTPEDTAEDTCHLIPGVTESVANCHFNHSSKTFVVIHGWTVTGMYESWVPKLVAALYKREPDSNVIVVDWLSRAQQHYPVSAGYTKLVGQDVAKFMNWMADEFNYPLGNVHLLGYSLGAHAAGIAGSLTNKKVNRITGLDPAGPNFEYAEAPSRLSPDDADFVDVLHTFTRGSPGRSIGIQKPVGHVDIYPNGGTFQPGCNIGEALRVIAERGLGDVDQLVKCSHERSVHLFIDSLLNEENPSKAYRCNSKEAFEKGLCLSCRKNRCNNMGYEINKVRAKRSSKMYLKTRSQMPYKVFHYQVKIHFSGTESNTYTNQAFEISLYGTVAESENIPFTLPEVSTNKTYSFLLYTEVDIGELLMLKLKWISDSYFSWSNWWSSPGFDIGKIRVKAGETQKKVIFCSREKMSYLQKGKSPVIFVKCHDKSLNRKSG

[2] = target: T2, C2thirdhelix Stearylpos17
T2 chain: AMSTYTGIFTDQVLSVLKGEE

C2thirdhelix Stearylpos1 = target: T3, C2thirdhelix Stearylpos1
T3 chain: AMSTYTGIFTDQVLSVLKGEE

C2thirdhelix Stearylpos2 = target: T4, C2thirdhelix Stearylpos2
T4 chain: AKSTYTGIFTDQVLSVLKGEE

C2thirdhelix = target: T5, C2thirdhelix
T5 chain: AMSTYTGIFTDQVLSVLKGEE

Delta13-31-PV = target: T6, Delta13-31-PV
T6 chain: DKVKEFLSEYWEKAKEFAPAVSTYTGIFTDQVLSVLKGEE

Delta4 = target: T7, Delta4
T7 chain: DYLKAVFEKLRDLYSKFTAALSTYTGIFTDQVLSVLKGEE

Delta4b T57F = target: T8, Delta4b T57F
T8 chain: T7 chain with T18F, A19P, L21M

Delta4b-1 = target: T9, Delta4b-1
T9 chain: T7 chain with F7K, A19P, L21M

Delta4b-2 = target: T10, Delta4b-2
T10 chain: T7 chain with L10K, A19P, L21M

Delta4b-3 = target: T11, Delta4b-3
T11 chain: T7 chain with F17K, A19P, L21M

Delta4b = target: T12, Delta4b
T12 chain: T7 chain with A19P, L21M

Delta4c trunc10 = target: T13, Delta4c trunc10
T13 chain: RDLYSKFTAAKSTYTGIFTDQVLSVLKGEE

Delta4c trunc11 = target: T14, Delta4c trunc11
T14 chain: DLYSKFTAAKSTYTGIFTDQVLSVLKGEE

Delta4c trunc14 = target: T15, Delta4c trunc14
T15 chain: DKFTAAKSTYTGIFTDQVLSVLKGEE

Delta4c trunc3 = target: T16, Delta4c trunc3
T16 chain: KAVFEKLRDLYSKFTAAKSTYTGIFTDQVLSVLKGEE

Delta4c trunc4 = target: T17, Delta4c trunc4
T17 chain: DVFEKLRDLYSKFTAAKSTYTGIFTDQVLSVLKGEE

Delta4c trunc7 = target: T18, Delta4c trunc7
T18 chain: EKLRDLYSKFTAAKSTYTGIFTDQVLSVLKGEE

Delta4c = target: T19, Delta4c
T19 chain: T7 chain with L21K

Delta5 = target: T20, Delta5
T20 chain: T7 chain with A5E

Delta6 = target: T21, Delta6
T21 chain: T7 chain with A5E, S15E

[3] = target: variants of Delta5 with the indicated amino acid substitutions

recombinant ApoC-III
free fatty acid (NEFA) production, LPL assay with high TG human plasma (1:50) [1]: 1.7 µM | free fatty acid (NEFA) production, LPL assay with human plasma [1]: 0.8 µM

DWLKAFYDKVAEKLKEAFPAMSTYTGIFTDQVLSVLKGEE [apoC-II-a peptide]
molar ratio of apoC-II-a to apoC-III that overcomes the in vitro inhibition of LPL [1]: 0.1 molar ratio apoC-II-a : apoC-III

B1: bovine LPL (lipoprotein lipase) (protein)
chain: T1 sequence (looked up)
TG hydrolysis, in vitro LPL assay with apoC-II deficient patient sera [2]: lipidation enhanced the ability of C2thirdhelix to promote TG hydrolysis | TG hydrolysis, in vitro LPL assay with apoC-II deficient patient sera (C2thirdhelix Stearylpos1): lipidation enhanced the ability of C2thirdhelix to promote TG hydrolysis | TG hydrolysis, in vitro LPL assay with apoC-II deficient patient sera (C2thirdhelix Stearylpos2): lipidation enhanced the ability of C2thirdhelix to promote TG hydrolysis | TG hydrolysis, in vitro LPL assay with apoC-II deficient patient sera (C2thirdhelix): lipidation enhanced the ability of C2thirdhelix to promote TG hydrolysis | TG hydrolysis, in vitro LPL assay with apoC-II deficient patient sera (Delta13-31-PV): promoted TG hydrolysis in vitro in a dose-dependent manner | TG hydrolysis, LPL assay using Intralipid as substrate (Delta4): worked more efficiently than the native apoC-II protein at concentrations of between about 1 nM to about 10 µM | TG hydrolysis, in vitro LPL assay, 100 pM to 10 µM peptide (Delta4): promoted TG hydrolysis in a dose-dependent manner | TG hydrolysis, in vitro LPL assay, 100 pM to 10 µM peptide (Delta4b T57F): promoted TG hydrolysis in a dose-dependent manner | TG hydrolysis, in vitro LPL assay, 100 pM to 10 µM peptide (Delta4b-1): promoted TG hydrolysis in a dose-dependent manner | TG hydrolysis, in vitro LPL assay, 100 pM to 10 µM peptide (Delta4b-2): promoted TG hydrolysis in a dose-dependent manner | TG hydrolysis, in vitro LPL assay with apoC-II deficient patient sera (Delta4b-3): incorporation of proline at position 58 and the stearic acid modification at the lysine residue at position 56 enhanced the TG clearance ability of the exemplary apoC-III mimetic peptide Delta4 | TG hydrolysis, in vitro LPL assay, 100 pM to 10 µM peptide (Delta4b-3): promoted TG hydrolysis in a dose-dependent manner | TG hydrolysis, in vitro LPL assay with apoC-II deficient patient sera (Delta4b): incorporation of proline at position 58 and the stearic acid modification at the lysine residue at position 56 enhanced the TG clearance ability of the exemplary apoC-III mimetic peptide Delta4 | TG hydrolysis, in vitro LPL assay, 100 pM to 10 µM peptide (Delta4b): promoted TG hydrolysis in a dose-dependent manner | TG hydrolysis, LPL assay with apoC-II deficient patient sera (Delta4c trunc10): Delta4c and its truncation variants promoted TG hydrolysis | TG hydrolysis, LPL assay with apoC-II deficient patient sera (Delta4c trunc11): Delta4c and its truncation variants promoted TG hydrolysis | TG hydrolysis, LPL assay with apoC-II deficient patient sera (Delta4c trunc14): Delta4c and its truncation variants promoted TG hydrolysis | TG hydrolysis, LPL assay with apoC-II deficient patient sera (Delta4c trunc3): Delta4c and its truncation variants promoted TG hydrolysis | TG hydrolysis, LPL assay with apoC-II deficient patient sera (Delta4c trunc4): Delta4c and its truncation variants promoted TG hydrolysis | TG hydrolysis, LPL assay with apoC-II deficient patient sera (Delta4c trunc7): Delta4c and its truncation variants promoted TG hydrolysis | TG hydrolysis, LPL assay with apoC-II deficient patient sera (Delta4c): Delta4c and its truncation variants promoted TG hydrolysis | TG hydrolysis, LPL assay using Intralipid as substrate (Delta5): worked more efficiently than the native apoC-II protein at concentrations of between about 1 nM to about 10 µM | TG hydrolysis, LPL assay with apoC-II deficient patient sera (Delta6): all variants of Delta5 with the indicated amino acid substitutions and Delta6 exhibited the ability to promote TG hydrolysis in a dose dependent matter | production of free fatty acid (NEFA), LPL assay with Intralipid as substrate (recombinant ApoC-III): apoC-III inhibited the production of free fatty acid (NEFA) | TG hydrolysis, LPL assay with apoC-II deficient patient sera [3]: all variants of Delta5 with the indicated amino acid substitutions and Delta6 exhibited the ability to promote TG hydrolysis in a dose dependent matter
